Test results: US20030180296A1 (Human Genome Sciences, published 2003)

B1: whole IgG1 antibody comprising the VH and VL domains of the CM005G08 scFv (antibody, V domains shown)
VH: EVQLVQSGGGVERPGGSLRLSCAASGFTFDDYGMSWVRQAPGKGLEWVSGINWNGGSTGYADSVKGRVTISRDNAKNSLYLQMNSLRAEDTAVYYCAKILGAGRGWYFDLWGKGTTVTVSS
VL: SSELTQDPAVSVALGQTVRITCQGDSLRSYYASWYQQKPGQAPVLVIYGKNNRPSGIPDRFSGSSSGNTASLTITGAQAEDEADYYCNSRDSSGNHVVFGGGTKLTVLG
notes: 3.75 ug/mL = 25 nM implies a whole IgG; also called CM005G08 (IgG1 format); anti-TR7 antibody
B2: TRAIL (ligand)
chain: TSEETISTVQEKQQNISPLVRERGPQRVAAHITGTRGRSNTLSSPNSKNEKALGRKINSWESSRSGHSFLSNLHLRNGELVIHEKGFYYIYSQTYFRFQEEIKENTKNDKQMVQYIYKYTSYPDPILLMKSARNSCWSKDAEYGLYSIYQGGIFELKENDRIFVSVTNEHLIDMDHEASFFGAFLVG
notes: also called soluble TRAIL ligand; AIM-I

What was measured:
TR7-Fc fusion protein [1] = target: T1, TR7-Fc fusion protein (human, UniProt O14763 52-184); assay: SPR (BIAcore 2000), TR7-Fc amine-coupled on CM5 chip, 1:1 Langmuir model, mean of three experiments; first lot
T1 construct: also called TR7-Fc receptor; TRAILR2; not shown: Fc region
Procedure: (§1) TR7-Fc and TR2-Fc were immobilized on individual flow cells of a BIAcore CM5 sensor chip (BIAcore, Cat # BR-1000-14). Amine coupling (BIAcore, Cat # BR-1000-50) was used to covalently bind each receptor to the dextran matrix on the sensor chip. The optimal pH for this coupling was analyzed using preconcentration experiments ranging from pH 4-7 and was determined to be pH 4.0 based on the slope of the binding. The actual coupling was performed using the manual injection mode. A target level of 200 relative units (RU) was set as the goal for both flow cells. A response of 1000 RU correlates to a change in surface concentration of about 1 ng/mm² for proteins. The molecular weight of the TR7 and TR2 fusion proteins was nearly identical. The concentration of both receptors for immobilization was 5 μg/ml in 10 mM acetate, pH 4.0 (BIAcore, Cat # BR-1003-49). The entire experiment was performed at a flow rate of 5 μL/min. Contact time for the N-ethyl-N′-(3-dimethylaminoprolpyl)carbodiimide hydrochloride/Ethanolamine hydrochloride-NaOH, pH 8.5 (EDC/NHS) injection was 3 minutes. The ethanolamine was injected for 3 minutes.
(§2) Analysis of CM005G08 kinetics was performed using the BIAcore 2000 instrument with the 2000 control software, version 3.1.1. […] The off rate of CM005G08 was determined by washing the complex in the presence of HBS-EP buffer for 10 minutes. […]

TR7-Fc fusion protein [2] = target: T1, TR7-Fc fusion protein; assay: competition ELISA, inhibition of biotinylated TRAIL binding to captured TR7-Fc; first of two lots
Procedure: (§3) Goat anti-human Fc is diluted to 0.1 micrograms/ml in coating buffer. An Immulon 4 microplate is coated with 100 microliters per well of the Goat anti-human Fc solution and incubated overnight at 4° C. The coating solution is decanted from the plate, and blocking solution is dispensed at 200 microliters per well. The plate is incubated at room temperature for 1 hour. After the 1 hour incubation period, the blocking solution is decanted from the plate and 1 microgram/mL of TR7-Fc is dispensed at 100 microliters/well and incubated for 2 hours at room temperature. After the incubation, the plate is washed five times manually using a Wheaton manifold.
(§4) Antibodies corresponding to scFvs of the present invention are (previously) prepared in a low binding dilution plate using diluent. The antibodies are prepared in duplicate and are diluted from the stock concentration with 2.5 fold dilutions for the 7 subsequent wells. If a purified form of the antibody is available, the starting concentration is 5 micrograms/mL. The positive control (TR7-Fc) is diluted from 5 micrograms/mL. 100 microliters is transferred into the ELISA plate and pre-incubated for 30 minutes at room temperature. […]
(§5) After the one-hour incubation, the plate is decanted and washed with PBST five times and blotted. […] The plate is immediately read at 450 nm using the spectrometer from Molecular Devices.

TR7-Fc fusion protein [3] = target: T1, TR7-Fc fusion protein; assay: SPR (BIAcore 2000), TR7-Fc amine-coupled on CM5 chip, 1:1 Langmuir model, mean of three experiments; second lot
Procedure: as §1, §2

TR7-Fc fusion protein [4] = target: T1, TR7-Fc fusion protein; assay: competition ELISA, inhibition of biotinylated TRAIL binding to captured TR7-Fc; second of two lots
Procedure: as §3, §4, §5

TR7-Fc fusion protein [5] = target: T1, TR7-Fc fusion protein; assay: competition ELISA, inhibition of biotinylated TRAIL binding to captured TR7-Fc; unlabelled TRAIL as competitor
Procedure: as §3, §4, §5

Row | Binder | Kd (TR7-Fc fusion protein [1]) [nM] | koff (TR7-Fc fusion protein [1]) [s⁻¹] | IC50 (TR7-Fc fusion protein [2]) [nM] | Kd (TR7-Fc fusion protein [3]) [nM] | koff (TR7-Fc fusion protein [3]) [s⁻¹] | IC50 (TR7-Fc fusion protein [4]) [nM] | IC50 (TR7-Fc fusion protein [5]) [nM]
1 | B1 | 0.25 | 0.00266 | 5.3 | 0.33 | 0.00268 | 6.89 | –
2 | B2 | – | – | – | – | – | – | 1.77
